Measured values published in PMC6237815, “Structural insights into DNA degradation by human mitochondrial nuclease MGME1”.

Tests used:
[1] = biological target: T1, HsMGME1 H180Q (Homo sapiens, UniProt Q9BQP7 21-344, H180Q); assay: crystal structure; one Ca2+ at A-site; acetate; 30 mM CaCl2 in sample; No solution binding assay; crystals at 18 C, protein 10 mg/ml in 20 mM Tris pH 8.0, 200 mM NaCl, 1 mM DTT, protein:DNA 1:1.2; DNA2: phosphate-citrate pH 4.2, 20% PEG300; H180Q-DNA2-Ca2+: 0.1 M CHES pH 9.5, 20% PEG 8000; DNA3: 0.1 M HEPES pH 7.5, 0.8 M NaH2PO4, 0.8 M K2HPO4; conditions: protein: recombinant; tags: none expected (His-SUMO removed by Ulp1); single strand
T1 sequence: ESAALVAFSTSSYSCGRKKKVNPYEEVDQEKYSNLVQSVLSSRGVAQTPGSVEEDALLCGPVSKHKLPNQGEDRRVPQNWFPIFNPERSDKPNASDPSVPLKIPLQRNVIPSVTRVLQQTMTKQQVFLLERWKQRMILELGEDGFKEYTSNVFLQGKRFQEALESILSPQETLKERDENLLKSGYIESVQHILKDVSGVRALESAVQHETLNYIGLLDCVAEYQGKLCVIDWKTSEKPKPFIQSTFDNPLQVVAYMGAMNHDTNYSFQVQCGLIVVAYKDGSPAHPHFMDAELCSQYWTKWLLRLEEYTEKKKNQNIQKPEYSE

[2] = biological target: T2, HsMGME1 WT (Homo sapiens, UniProt Q9BQP7 21-344); assay: crystal structure (1.75 A); CaCl2 in the sample (10 mM), but no Ca2+ bound at the active site; No solution binding assay; crystals at 18 C, protein 10 mg/ml in 20 mM Tris pH 8.0, 200 mM NaCl, 1 mM DTT, protein:DNA 1:1.2; DNA2: phosphate-citrate pH 4.2, 20% PEG300; H180Q-DNA2-Ca2+: 0.1 M CHES pH 9.5, 20% PEG 8000; DNA3: 0.1 M HEPES pH 7.5, 0.8 M NaH2PO4, 0.8 M K2HPO4; conditions: protein: recombinant; tags: none expected (His-SUMO removed by Ulp1); single strand
T2 sequence: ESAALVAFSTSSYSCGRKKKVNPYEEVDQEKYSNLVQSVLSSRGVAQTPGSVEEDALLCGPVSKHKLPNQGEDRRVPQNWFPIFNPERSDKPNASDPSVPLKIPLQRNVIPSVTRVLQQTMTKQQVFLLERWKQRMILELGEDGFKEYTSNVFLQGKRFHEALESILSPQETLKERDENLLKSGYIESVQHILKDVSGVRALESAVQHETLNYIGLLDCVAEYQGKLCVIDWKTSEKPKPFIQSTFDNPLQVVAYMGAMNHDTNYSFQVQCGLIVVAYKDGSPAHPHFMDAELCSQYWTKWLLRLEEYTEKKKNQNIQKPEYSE

[3] = biological target: T2, HsMGME1 WT; assay: crystal structure (Se-SAD and native); three of four molecules contact only the 3' overhang, one contacts duplex and overhang; No solution binding assay; crystals at 18 C, protein 10 mg/ml in 20 mM Tris pH 8.0, 200 mM NaCl, 1 mM DTT, protein:DNA 1:1.2; DNA2: phosphate-citrate pH 4.2, 20% PEG300; H180Q-DNA2-Ca2+: 0.1 M CHES pH 9.5, 20% PEG 8000; DNA3: 0.1 M HEPES pH 7.5, 0.8 M NaH2PO4, 0.8 M K2HPO4; conditions: protein: recombinant; tags: none expected (His-SUMO removed by Ulp1); self-complementary 6-bp duplex GGATCC, 3' overhang 12 nt on both strands; 2 copies of the strand

AACAACAACAAC (ssDNA) [ssDNA2]
binding result [1]: binds | binding result [2]: binds

B1: DNA3 (mixed)
DNA 1: GGATCCTTCTTCTTCTTC
DNA 2: GGATCCTTCTTCTTCTTC
binding result [3]: binds
